Data: patent US11572408B2, “Treatment of cancer with a semaphorin-4D antibody in combination with an epigenetic modulating agent” (Vaccinex, Inc., priority 2017, dated 2023)

B1: anti-SEMA4D/MAb 67: anti-SEMA4D monoclonal antibody, VH SEQ ID NO: 9 and VL SEQ ID NO: 10 (antibody, V domains shown)
VH: QVQLQQSGPELVKPGASVKISCKASGYSFSDYYMHWVKQSPENSLEWIGQINPTTGGASYNQKFKGKATLTVDKSSSTAYMQLKSLTSEESAVYYCTRYYYGRHFDVWGQGTTVTVSS
VL: DIVMTQSPASLAVSLGQRATISCKASQSVDYDGDSYMNWYQQKPGQPPKLLIYAASNLESGIPARFSGSGSGTDFTLNIHPVEEEDAATYYCQQSNEDPYTFGGGTKLEIK
modifications: Mab 67 VH; Mab 67 VL

How the values were obtained:
Format in all cases: in vivo, Balb/c mice
Colon26 cells [1] = assay: Example 1: Colon26 subcutaneous tumor mouse model, ENT and anti-SEMA4D MAb; conditions: MAb 67 10 mg/kg ip weekly x5 from day 2, ENT 20 mg/kg 3x/week x2 weeks from tumor volume ~300 mm^3, FIG. 2A
Experimental: Colon26 cells (500,000 cells) were implanted subcutaneously into Balb/c mice. […] Kaplan-Meier survival analysis was performed to assess survival function, change in tumor volume was measured to determine tumor growth rates, and frequency of complete tumor regression was evaluated by determining the percentage of tumor-free mice. Percent complete regression (% CR) was also stratified by tumors that exceeded at least 100 mm^3 before regressing. Statistical significance was determined using Mantel Cox Log Rank test for survival, 2-way ANOVA for tumor volume, and Fisher's exact test for CR. Prism reports results as non-significant (ns) at P>0.05, significant (symbolized by “*”) at 0.01<P≤0.05, very significant (“**”) at 0.001<P≤0.01, extremely significant (“***”) at P≤0.001, and highest significance (“****”) at P≤0.0001.

Colon26 cells [2] = assay: Example 2: Colon26 subcutaneous tumor mouse model, ENT and anti-SEMA4D MAb
Experimental: Colon26 cells (500,000 cells) were implanted subcutaneously into Balb/c mice. […] Statistical significance was determined using 2-way ANOVA, Mantel Cox Log Rank test, and Fisher's exact test, respectively. Prism reports results as non-significant (ns) at P>0.05, significant (symbolized by “*”) at 0.01<P≤0.05, very significant (“**”) at 0.001<P≤0.01, and extremely significant (“***”) at P≤0.001.

Colon26 cells [3] = assay: Example 3: Colon26 subcutaneous tumor mouse model, AZA and anti-SEMA4D MAb; conditions: MAb 67 10 mg/kg ip weekly x4 from day 2, AZA 0.8 mg/kg 3x/week x4 doses from tumor volume ~200 mm^3, FIG. 5A
Experimental: Colon26 cells (500,000 cells) were implanted subcutaneously into Balb/c mice.
Kaplan-Meier survival analysis was performed to assess survival function, change in tumor volume was measured to determine tumor growth rates, and frequency of complete tumor regression was evaluated by determining the percentage of tumor-free mice.

| Molecule | maximal tumor growth delay (TGD) (Colon26 cells [1]) [%] | frequency of complete tumor regression (Colon26 cells [2]; Fisher's exact test) [%] | maximal tumor growth delay (TGD) (Colon26 cells [2]; MAb 67 10 mg/kg weekly x5 from day 2, ENT 20 mg/kg 3x/week x2 weeks from tumor volume ~250 mm^3, FIG. 3A) [%] | maximal tumor growth delay (TGD) (Colon26 cells [3]) [%] |
| --- | --- | --- | --- | --- |
| Nc1ccccc1NC(=O)c1ccc(CNC(=O)OCc2cccnc2)cc1 [ENT, pyridin-3-ylmethyl N-[[4-[(2-aminophenyl)carbamoyl]phenyl]methyl] carbamate, reference compound] | 214 | 25 |  |  |
| B1 | 107 |  | 119 | 119 |
